Data taken from the supplement of paper PMC9112550, “Optimization of the antimicrobial peptide Bac7 by deep mutational scanning” (BMC Biology, 2022).

Test system: Escherichia coli TOP10
Assay: shrunken log2 fold change of peptide-encoding DNA abundance (4.5 h post-induction vs induction); higher = less antimicrobial activity (less host growth inhibition)
Conditions: time post-induction: 4.5 h; library: site-saturation at positions 5, 18, 19, 20
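Further: peptides expressed intracellularly from a pBAD plasmid library in pooled LB shake-flask culture, induced with 0.3% L-arabinose, DNA abundance read by NGS, three biological replicates, DESeq2 with apeglm shrinkage.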

Row | Sequence | shrunken log2 fold change
1 | RRIRCRPPRLPRPRPRPLWHPRP | -0.091
2 | RRIRTRPPRLPRPRPRPNDRPRP | 0.21
3 | RRIRYRPPRLPRPRPRPHAIPRP | -0.268
4 | RRIRERPPRLPRPRPRPHWYPRP | -1.19
5 | RRIRNRPPRLPRPRPRPKIYPRP | -0.0429
6 | RRIRNRPPRLPRPRPRPYENPRP | -0.0659
7 | RRIRFRPPRLPRPRPRPFFKPRP | -0.251
8 | RRIRSRPPRLPRPRPRPQLAPRP | 0.0789
9 | RRIRFRPPRLPRPRPRPDYLPRP | -0.159
10 | RRIRRRPPRLPRPRPRPVEGPRP | 0.268
11 | RRIRPRPPRLPRPRPRPLCQPRP | -0.116
12 | RRIRWRPPRLPRPRPRPNGAPRP | 0.161
13 | RRIRVRPPRLPRPRPRPCWVPRP | 0.0559
14 | RRIRKRPPRLPRPRPRPWNRPRP | -0.078
15 | RRIRVRPPRLPRPRPRPIFNPRP | -0.274
16 | RRIRIRPPRLPRPRPRPDEYPRP | 0.0287
17 | RRIRGRPPRLPRPRPRPAWVPRP | 0.456
18 | RRIRFRPPRLPRPRPRPYRRPRP | -0.506
19 | RRIRFRPPRLPRPRPRPGFGPRP | 0.337
20 | RRIRIRPPRLPRPRPRPGQPPRP | 0.0462

Row | Sequence | shrunken log2 fold change
21 | RRIRLRPPRLPRPRPRPAGLPRP | 0.102
22 | RRIRYRPPRLPRPRPRPLGIPRP | -0.576
23 | RRIRPRPPRLPRPRPRPYWPPRP | -0.143
24 | RRIRWRPPRLPRPRPRPMILPRP | -0.14
25 | RRIRVRPPRLPRPRPRPMVVPRP | -0.0329
26 | RRIRNRPPRLPRPRPRPDFRPRP | -0.0186
27 | RRIRLRPPRLPRPRPRPWGQPRP | -0.0472
28 | RRIRRRPPRLPRPRPRPETCPRP | -0.00655
29 | RRIRWRPPRLPRPRPRPDKNPRP | 0.142
30 | RRIRWRPPRLPRPRPRPVIYPRP | -0.279
31 | RRIRARPPRLPRPRPRPKSKPRP | 0.257
32 | RRIRIRPPRLPRPRPRPEYKPRP | -0.978
33 | RRIRFRPPRLPRPRPRPYAKPRP | -0.552
34 | RRIRARPPRLPRPRPRPKVNPRP | -0.109
35 | RRIRYRPPRLPRPRPRPWWHPRP | -0.757
36 | RRIRFRPPRLPRPRPRPDGMPRP | -0.0385
37 | RRIRVRPPRLPRPRPRPEHDPRP | -0.249
38 | RRIRNRPPRLPRPRPRPDWVPRP | 0.134
39 | RRIRPRPPRLPRPRPRPIKLPRP | -0.0641
40 | RRIRIRPPRLPRPRPRPIQIPRP | -0.0257

Row | Sequence | shrunken log2 fold change
41 | RRIRIRPPRLPRPRPRPAQKPRP | -0.00244
42 | RRIRLRPPRLPRPRPRPGVNPRP | 0.0348
43 | RRIRDRPPRLPRPRPRPDPKPRP | 0.189
44 | RRIRDRPPRLPRPRPRPIREPRP | -0.00227
45 | RRIRKRPPRLPRPRPRPMENPRP | 0.0428
46 | RRIRMRPPRLPRPRPRPYCCPRP | -0.348
47 | RRIRMRPPRLPRPRPRPCMQPRP | -0.143
48 | RRIRFRPPRLPRPRPRPAQRPRP | 0.302
49 | RRIRMRPPRLPRPRPRPMWLPRP | 0.208
50 | RRIRTRPPRLPRPRPRPELCPRP | -0.101
51 | RRIRMRPPRLPRPRPRPKVFPRP | 0.0743
52 | RRIRTRPPRLPRPRPRPAWDPRP | 0.454
53 | RRIRQRPPRLPRPRPRPDTQPRP | -0.401
54 | RRIRKRPPRLPRPRPRPMLVPRP | -0.0603
55 | RRIRLRPPRLPRPRPRPKNCPRP | -0.5
56 | RRIRKRPPRLPRPRPRPCRHPRP | -0.00769
57 | RRIRWRPPRLPRPRPRPWDIPRP | -0.309
58 | RRIRARPPRLPRPRPRPAATPRP | 0.914
59 | RRIRDRPPRLPRPRPRPHDLPRP | -0.0733
60 | RRIRSRPPRLPRPRPRPEDPPRP | 0.931
